Data taken from patent US20160201097A1, “Materials and Methods of Producing 7-Carbon Monomers” (INVISTA North America S.á.r.l., priority 2014, published 2016).

B1: SEQ ID NO: 3: Mycobacterium smegmatis carboxylate reductase, N-terminal HIS tagged (protein, listed as Mycobacterium smegmatis)
chain: MTSDVHDATDGVTETALDDEQSTRRIAELYATDPEFAAAAPLPAVVDAAHKPGLRLAEILQTLFTGYGDRPALGYRARELATDEGGRTVTRLLPRFDTLTYAQVWSRVQAVAAALRHNFAQPIYPGDAVATIGFASPDYLTLDLVCAYLGLVSVPLQHNAPVSRLAPILAEVEPRILTVSAEYLDLAVESVRDVNSVSQLVVFDHHPEVDDHRDALARAREQLAGKGIAVTTLDAIADEGAGLPAEPIYTADHDQRLAMILYTSGSTGAPKGAMYTEAMVARLWTMSFITGDPTPVINVNFMPLNHLGGRIPISTAVQNGGTSYFVPESDMSTLFEDLALVRPTELGLVPRVADMLYQHHLATVDRLVTQGADELTAEKQAGAELREQVLGGRVITGFVSTAPLAAEMRAFLDITLGAHIVDGYGLTETGAVTRDGVIVRPPVIDYKLIDVPELGYFSTDKPYPRGELLVRSQTLTPGYYKRPEVTASVFDRDGYYHTGDVMAETAPDHLVYVDRRNNVLKLAQGEFVAVANLEAVFSGAALVRQIFVYGNSERSFLLAVVVPTPEALEQYDPAALKAALADSLQRTARDAELQSYEVPADFIVETEPFSAANGLLSGVGKLLRPNLKDRYGQRLEQMYADIAATQANQLRELRRAAATQPVIDTLTQAAATILGTGSEVASDAHFTDLGGDSLSALTLSNLLSDFFGFEVPVGTIVNPATNLAQLAQHIEAQRTAGDRRPSFTTVHGADATEIRASELTLDKFIDAETLRAAPGLPKVTTEPRTVLLSGANGWLGRFLTLQWLERLAPVGGTLITIVRGRDDAAARARLTQAYDTDPELSRRFAELADRHLRVVAGDIGDPNLGLTPEIWHRLAAEVDLVVHPAALVNHVLPYRQLFGPNVVGTAEVIKLALTERIKPVTYLSTVSVAMGIPDFEEDGDIRTVSPVRPLDGGYANGYGNSKWAGEVLLREAHDLCGLPVATFRSDMILAHPRYRGQVNVPDMFTRLLLSLLITGVAPRSFYIGDGERPRAHYPGLTVDFVAEAVTTLGAQQREGYVSYDVMNPHDDGISLDVFVDWLIRAGHPIDRVDDYDDWVRRFETALTALPEKRRAQTVLPLLHAFRAPQAPLRGAPEPTEVFHAAVRTAKVGPGDIPHLDEALIDKYIRDLREFGLI
modifications: N-terminal His tag
notes: Mycobacterium smegmatis carboxylate reductase, N-terminal HIS tagged
B2: SEQ ID NO: 9: Pseudomonas syringae ω-transaminase, N-terminal HIS tagged (protein, listed as Pseudomonas syringae)
chain: MSANNPQTLEWQALSSEHHLAPFSDYKQLKEKGPRIITRAEGVYLWDSEGNKILDGMSGLWCVAIGYGREELADAASKQMRELPYYNLFFQTAHPPVLELAKAISDIAPEGMNHVFFTGSGSEGNDTMLRMVRHYWALKGQPNKKTIISRVNGYHGSTVAGASLGGMTYMHEQGDLPIPGVVHIPQPYWFGEGGDMTPDEFGIWAAEQLEKKILELGVENVGAFIAEPIQGAGGVIVPPDSYWPKIKEILSRYDILFAADEVICGFGRTSEWFGSDFYGLRPDMMTIAKGLTSGYVPMGGLIVRDEIVAVLNEGGDFNHGFTYSGHPVAAAVALENIRILREEKIVERVRSETAPYLQKRLRELSDHPLVGEVRGVGLLGAIELVKDKTTRERYTDKGAGMICRTFCFDNGLIMRAVGDTMIIAPPLVISFAQIDELVEKARTCLDLTLAVLQG
modifications: N-terminal His tag
notes: Pseudomonas syringae ω-transaminase, N-terminal HIS tagged
B3: SEQ ID NO: 12: Vibrio fluvialis ω-transaminase, N-terminal HIS tagged (protein, listed as Vibrio fluvialis)
chain: MNKPQSWEARAETYSLYGFTDMPSLHQRGTVVVTHGEGPYIVDVNGRRYLDANSGLWNMVAGFDHKGLIDAAKAQYERFPGYHAFFGRMSDQTVMLSEKLVEVSPFDSGRVFYTNSGSEANDTMVKMLWFLHAAEGKPQKRKILTRWNAYHGVTAVSASMTGKPYNSVFGLPLPGFVHLTCPHYWRYGEEGETEEQFVARLARELEETIQREGADTIAGFFAEPVMGAGGVIPPAKGYFQAILPILRKYDIPVISDEVICGFGRTGNTWGCVTYDFTPDAIISSKNLTAGFFPMGAVILGPELSKRLETAIEAIEEFPHGFTASGHPVGCAIALKAIDVVMNEGLAENVRRLAPRFEERLKHIAERPNIGEYRGIGFMWALEAVKDKASKTPFDGNLSVSERIANTCTDLGLICRPLGQSVVLCPPFILTEAQMDEMFDKLEKALDKVFAEVA
modifications: N-terminal His tag
notes: Vibrio fluvialis ω-transaminase, N-terminal HIS tagged

How the values were obtained:
Format in all cases: biochemical
[1] = ω-transaminase activity, reverse direction: 7-aminoheptanoate to pimelate semialdehyde (L-alanine formation by RP-HPLC); conditions: cell free extract, 10 mM 7-aminoheptanoate, 10 mM pyruvate, pH 7.5, 25° C., 4 h; against the empty vector control (FIG. 13)
Method: (§1) A nucleotide sequence encoding an N-terminal His-tag was added to the nucleic acid sequences from Chromobacterium violaceum, Pseudomonas syringae, Rhodobacter sphaeroides, and Vibrio fluvialis encoding the ω-transaminases of SEQ ID NOs: 7, 9, 10 and 12, respectively (see FIG. 6) such that N-terminal HIS tagged ω-transaminases could be produced. Each of the resulting modified genes was cloned into a pET21a expression vector under control of the T7 promoter and each expression vector was transformed into a BL21[DE3] E. coli host. The resulting recombinant E. coli strains were cultivated at 37° C. in a 250 mL shake flask culture containing 50 mL LB media and antibiotic selection pressure, with shaking at 230 rpm. Each culture was induced overnight at 16° C. using 1 mM IPTG.
(§2) The pellet from each induced shake flask culture was harvested via centrifugation. Each pellet was resuspended and lysed via sonication. The cell debris was separated from the supernatant via centrifugation and the cell free extract was used immediately in enzyme activity assays.
Enzyme activity assays in the reverse direction (i.e., 7-aminoheptanoate to pimelate semialdehyde) were performed in a buffer composed of a final concentration of 50 mM HEPES buffer (pH=7.5), 10 mM 7-aminoheptanoate, 10 mM pyruvate and 100 μM pyridoxyl 5′ phosphate. Each enzyme activity assay reaction was initiated by adding cell free extract of the ω-transaminase gene product or the empty vector control to the assay buffer containing the 7-aminoheptanoate and incubated at 25° C. for 4 h, with shaking at 250 rpm. The formation of L-alanine from pyruvate was quantified via RP-HPLC.

[2] = ω-transaminase activity: 7-aminoheptanol to 7-oxoheptanol (L-alanine formation by RP-HPLC); conditions: for acceptance of 7-aminoheptanol as substrate (conversion of pyruvate to L-alanine): cell free extract, 10 mM 7-aminoheptanol, 10 mM pyruvate, pH 7.5, 25° C., 4 h, against the empty vector control (FIG. 17); for acceptance of 7-oxoheptanol as substrate forming 7-aminoheptanol: concluded from the reversibility of the ω-transaminase activity (Example 1)
Method: A nucleotide sequence encoding an N-terminal His-tag was added to the Chromobacterium violaceum, Pseudomonas syringae and Rhodobacter sphaeroides nucleic acids encoding the ω-transaminases of SEQ ID NOs: 7, 9 and 10, respectively (see FIG. 6) such that N-terminal HIS tagged ω-transaminases could be produced. The modified genes were cloned into a pET21a expression vector under the T7 promoter. Each expression vector was transformed into a BL21[DE3] E. coli host. Each resulting recombinant E. coli strain were cultivated at 37° C. in a 250 mL shake flask culture containing 50 mL LB media and antibiotic selection pressure, with shaking at 230 rpm. Each culture was induced overnight at 16° C. using 1 mM IPTG.
as §2
Enzyme activity assays in the reverse direction (i.e., 7-aminoheptanol to 7-oxoheptanol) were performed in a buffer composed of a final concentration of 50 mM HEPES buffer (pH=7.5), 10 mM 7-aminoheptanol, 10 mM pyruvate, and […] pyridoxyl 5′ phosphate. Each enzyme activity assay reaction was initiated by adding cell free extract of the ω-transaminase gene product or the empty vector control to the assay buffer containing the 7-aminoheptanol and then incubated at 25° C. for 4 h, with shaking at 250 rpm. The formation of L-alanine was quantified via RP-HPLC.

[3] = ω-transaminase activity, forward direction: pimelate semialdehyde to 7-aminoheptanoate (pyruvate formation by RP-HPLC); conditions: for acceptance of pimelate semialdehyde as substrate (conversion of L-alanine to pyruvate): cell free extract, 10 mM pimelate semialdehyde, 10 mM L-alanine, pH 7.5, 25° C., 4 h, against the empty vector control (FIG. 14); for reversibility of ω-transaminase activity: pimelate semialdehyde accepted, 7-aminoheptanoate synthesized: conclusion from reverse and forward assays of Example 1
Method: as §1, §2
Enzyme activity in the forward direction (i.e., pimelate semialdehyde to 7-aminoheptanoate) was confirmed for the transaminases of SEQ ID NO 9, SEQ ID NO 10 and SEQ ID NO 12. Enzyme activity assays were performed in a buffer composed of a final concentration of 50 mM HEPES buffer (pH=7.5), 10 mM pimelate semialdehyde, 10 mM L-alanine and 100 μM pyridoxyl 5′ phosphate. Each enzyme activity assay reaction was initiated by adding a cell free extract of the ω-transaminase gene product or the empty vector control to the assay buffer containing the pimelate semialdehyde and incubated at 25° C. for 4 h, with shaking at 250 rpm. The formation of pyruvate was quantified via RP-HPLC.

[4] = carboxylate reductase activity: N7-acetyl-7-aminoheptanoate to N7-acetyl-7-aminoheptanal (NADPH consumption, A340); conditions: purified enzyme enhanced by sfp gene product, 2 mM N7-acetyl-7-aminoheptanoate, pH 7.5, room temperature, 20 min; against the empty vector control (FIG. 10)
Method: The activity of each of the N-terminal His-tagged carboxylate reductases of SEQ ID NOs: 3, 5, and 6 (see Examples 2 and 3, and FIG. 6) for converting N7-acetyl-7-aminoheptanoate to N7-acetyl-7-aminoheptanal was assayed in triplicate in a buffer composed of a final concentration of 50 mM HEPES buffer (pH=7.5), 2 mM N7-acetyl-7-aminoheptanoate, 10 mM MgCl2, 1 mM ATP, and 1 mM NADPH. The assays were initiated by adding purified carboxylate reductase and phosphopantetheine transferase or the empty vector control to the assay buffer containing the N7-acetyl-7-aminoheptanoate then incubated at room temperature for 20 min. The consumption of NADPH was monitored by absorbance at 340 nm.

Molecule | acceptance of 7-aminoheptanoate as substrate (conversion of pyruvate to L-alanine) [1] | acceptance of 7-aminoheptanol as substrate (conversion of pyruvate to L-alanine) [2] | acceptance of 7-oxoheptanol as substrate forming 7-aminoheptanol [2] | acceptance of pimelate semialdehyde as substrate (conversion of L-alanine to pyruvate) [3] | reversibility of ω-transaminase activity: pimelate semialdehyde accepted, 7-aminoheptanoate synthesized [3] | acceptance of N7-acetyl-7-aminoheptanoate as substrate (NADPH consumption) [4]
SEQ ID NO: 10: Rhodobacter sphaeroides ω-transaminase, N-terminal HIS tagged | accepted 7-aminoheptanoate as substrate | accepted 7-aminoheptanol as substrate | accept 7-oxoheptanol as substrate and form 7-aminoheptanol | accepted pimelate semialdehyde as substrate | accepted pimelate semialdehyde as substrate and synthesized 7-aminoheptanoate as a reaction product | –
B1 | – | – | – | – | – | accepted N7-acetyl-7-aminoheptanoate as substrate
B2 | accepted 7-aminoheptanoate as substrate | accepted 7-aminoheptanol as substrate | accept 7-oxoheptanol as substrate and form 7-aminoheptanol | accepted pimelate semialdehyde as substrate | accepted pimelate semialdehyde as substrate and synthesized 7-aminoheptanoate as a reaction product | –
B3 | accepted 7-aminoheptanoate as substrate | – | – | accepted pimelate semialdehyde as substrate | accepted pimelate semialdehyde as substrate and synthesized 7-aminoheptanoate as a reaction product | –
